Laboratory results from patent US12698507B2, “Methods and compositions for conferring and/or enhancing herbicide tolerance using protoporphyrinogen IX oxidase of various cyanobacteria or variant thereof” (FarmHannong Co., Ltd., priority 2019, dated 2026).

B1: CyPPO19 V305L + I408R + F360L: variant of CyPPO19 PPO protein (SEQ ID NO: 1) (protein)
chain: MSEVDVAIVGGGLSGLSLAWRLQQSAPQYSVVLLEASDRLGGNITTQTAEGFVWELGPNSFAPTPALLQLIAEVGLQSELIRGDRHLPRYIYWRGQLYPLQPTRPLALATSNLLSPWGKVRAALGALGFVPPYLGSGDESVNSFFRRHLGQEVAERLVAPFVSGVYAGDPQQLSAAAAFRRIAQLEKLGGGLIAGALHLRRQQAPKPKPPTSVQMRPGELGSFKEGLAALPRAIAQQLKAPIHLQTPVQEITPDPKGGYLLRSGEQTWRARSVVLATPAYQTAELVAPFQPAIARVLATIPYPTLACVVLAYPAGLGRSVRPGFGVLIPRSQGIRTLGTIWSSCLFPQRTPAGWQVFTSLIGGATDPDLASLSEEAIVQQVQQDLNRLLDLPAAKARLLGMKVWRRARPQYMVGYPEQWQQVTHALSQTPGLFLCSNYAEGVALGDRVEHGNRTAAAVAAYLSGGQP
modifications: Synthetic_PPO of Thermosynechococcus elongatus PKUAC-SCTE542 (comprising GenBank No. CP032152.1)
B2: CyPPO19 L327T + I408R + F360M: variant of CyPPO19 PPO protein (SEQ ID NO: 1) (protein)
chain: MSEVDVAIVGGGLSGLSLAWRLQQSAPQYSVVLLEASDRLGGNITTQTAEGFVWELGPNSFAPTPALLQLIAEVGLQSELIRGDRHLPRYIYWRGQLYPLQPTRPLALATSNLLSPWGKVRAALGALGFVPPYLGSGDESVNSFFRRHLGQEVAERLVAPFVSGVYAGDPQQLSAAAAFRRIAQLEKLGGGLIAGALHLRRQQAPKPKPPTSVQMRPGELGSFKEGLAALPRAIAQQLKAPIHLQTPVQEITPDPKGGYLLRSGEQTWRARSVVLATPAYQTAELVAPFQPAIARVLATIPYPTVACVVLAYPAGLGRSVRPGFGVTIPRSQGIRTLGTIWSSCLFPQRTPAGWQVFTSMIGGATDPDLASLSEEAIVQQVQQDLNRLLDLPAAKARLLGMKVWRRARPQYMVGYPEQWQQVTHALSQTPGLFLCSNYAEGVALGDRVEHGNRTAAAVAAYLSGGQP
modifications: Synthetic_PPO of Thermosynechococcus elongatus PKUAC-SCTE542 (comprising GenBank No. CP032152.1)
B3: CyPPO19 L327T + I408W + F360V: variant of CyPPO19 PPO protein (SEQ ID NO: 1) (protein)
chain: MSEVDVAIVGGGLSGLSLAWRLQQSAPQYSVVLLEASDRLGGNITTQTAEGFVWELGPNSFAPTPALLQLIAEVGLQSELIRGDRHLPRYIYWRGQLYPLQPTRPLALATSNLLSPWGKVRAALGALGFVPPYLGSGDESVNSFFRRHLGQEVAERLVAPFVSGVYAGDPQQLSAAAAFRRIAQLEKLGGGLIAGALHLRRQQAPKPKPPTSVQMRPGELGSFKEGLAALPRAIAQQLKAPIHLQTPVQEITPDPKGGYLLRSGEQTWRARSVVLATPAYQTAELVAPFQPAIARVLATIPYPTVACVVLAYPAGLGRSVRPGFGVTIPRSQGIRTLGTIWSSCLFPQRTPAGWQVFTSVIGGATDPDLASLSEEAIVQQVQQDLNRLLDLPAAKARLLGMKVWRRAWPQYMVGYPEQWQQVTHALSQTPGLFLCSNYAEGVALGDRVEHGNRTAAAVAAYLSGGQP
modifications: Synthetic_PPO of Thermosynechococcus elongatus PKUAC-SCTE542 (comprising GenBank No. CP032152.1)
B4: CyPPO19 R89A + V165C + A167C + F360I: variant of CyPPO19 PPO protein (SEQ ID NO: 1) (protein)
chain: MSEVDVAIVGGGLSGLSLAWRLQQSAPQYSVVLLEASDRLGGNITTQTAEGFVWELGPNSFAPTPALLQLIAEVGLQSELIRGDRHLPAYIYWRGQLYPLQPTRPLALATSNLLSPWGKVRAALGALGFVPPYLGSGDESVNSFFRRHLGQEVAERLVAPFVSGCYCGDPQQLSAAAAFRRIAQLEKLGGGLIAGALHLRRQQAPKPKPPTSVQMRPGELGSFKEGLAALPRAIAQQLKAPIHLQTPVQEITPDPKGGYLLRSGEQTWRARSVVLATPAYQTAELVAPFQPAIARVLATIPYPTVACVVLAYPAGLGRSVRPGFGVLIPRSQGIRTLGTIWSSCLFPQRTPAGWQVFTSIIGGATDPDLASLSEEAIVQQVQQDLNRLLDLPAAKARLLGMKVWRRAIPQYMVGYPEQWQQVTHALSQTPGLFLCSNYAEGVALGDRVEHGNRTAAAVAAYLSGGQP
modifications: Synthetic_PPO of Thermosynechococcus elongatus PKUAC-SCTE542 (comprising GenBank No. CP032152.1)

The molecules below were run on PPO-deficient BT3 E. coli (ΔPPO) (assay: PPO-inhibiting herbicide tolerance test of PPO variants in E. coli (growth on herbicide-containing LB agar)). Details: CyPPO19 variants in BT3 (ΔPPO) E. coli; LB agar with 0 to 2,000 μM herbicide, 37° C., dark, 16-20 hours.
Format: cell-based
Method in brief: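 Tolerance was scored against wild-type enzyme: '−' for equal growth, one '+' per 10-fold gain, up to '+++++'. ΔPPO BT3 cells carrying variant plasmids, spotted as a 10-fold dilution series from OD600=0.5, grew 16-20 h at 37° C. in the dark on ampicillin LB agar containing 0 to 2,000 μM herbicide.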
With B1 the “tolerance level relative to wild type, Carfentrazone” value was “+ (‘+’ per each 10-fold resistance)”, the “tolerance level relative to wild type, Flumioxazin” value was “++++ (‘+’ per each 10-fold resistance)” and the “tolerance level relative to wild type, Fomesafen” value was “+ (‘+’ per each 10-fold resistance)”. The “tolerance level relative to wild type, Oxyfluorfen” value was “++ (‘+’ per each 10-fold resistance)”, the “tolerance level relative to wild type, Saflufenacil” value was “+++++ (until ‘+++++’ as maximal resistance)” and the “tolerance level relative to wild type, Sulfentrazone” value was “++ (‘+’ per each 10-fold resistance)”. The “tolerance level relative to wild type, Tiafenacil” value was “+++++ (until ‘+++++’ as maximal resistance)”. For B2, the “tolerance level relative to wild type, Carfentrazone” value was “+ (‘+’ per each 10-fold resistance)”, the “tolerance level relative to wild type, Flumioxazin” value was “+++++ (until ‘+++++’ as maximal resistance)” and the “tolerance level relative to wild type, Fomesafen” value was “++ (‘+’ per each 10-fold resistance)”. The “tolerance level relative to wild type, Oxyfluorfen” value was “+++ (‘+’ per each 10-fold resistance)”, the “tolerance level relative to wild type, Saflufenacil” value was “+++ (‘+’ per each 10-fold resistance)” and the “tolerance level relative to wild type, Sulfentrazone” value was “+ (‘+’ per each 10-fold resistance)”. The “tolerance level relative to wild type, Tiafenacil” value was “+++++ (until ‘+++++’ as maximal resistance)”. For B3, the “tolerance level relative to wild type, Carfentrazone” value was “++ (‘+’ per each 10-fold resistance)”, the “tolerance level relative to wild type, Flumioxazin” value was “+++++ (until ‘+++++’ as maximal resistance)” and the “tolerance level relative to wild type, Fomesafen” value was “+++++ (until ‘+++++’ as maximal resistance)”. For the same molecule, the “tolerance level relative to wild type, Oxyfluorfen” value was “+++++ (until ‘+++++’ as maximal resistance)”, the “tolerance level relative to wild type, Saflufenacil” value was “+++++ (until ‘+++++’ as maximal resistance)” and the “tolerance level relative to wild type, Sulfentrazone” value was “++++ (‘+’ per each 10-fold resistance)”. For the same molecule, the “tolerance level relative to wild type, Tiafenacil” value was “+++++ (until ‘+++++’ as maximal resistance)”. In the case of B4, the “tolerance level relative to wild type, Carfentrazone” value is reported as “+ (‘+’ per each 10-fold resistance)”, the “tolerance level relative to wild type, Flumioxazin” value is reported as “+++ (‘+’ per each 10-fold resistance)” and the “tolerance level relative to wild type, Fomesafen” value is reported as “++ (‘+’ per each 10-fold resistance)”. For the same molecule, the “tolerance level relative to wild type, Oxyfluorfen” value was “+ (‘+’ per each 10-fold resistance)”, the “tolerance level relative to wild type, Saflufenacil” value was “+++ (‘+’ per each 10-fold resistance)” and the “tolerance level relative to wild type, Sulfentrazone” value was “++ (‘+’ per each 10-fold resistance)”. For the same molecule, the “tolerance level relative to wild type, Tiafenacil” value was “+++ (‘+’ per each 10-fold resistance)”.
